Measured values as given in US20250002577A1 (ONCORESPONSE, published 2025).

Experiments:
human LILRB1 on cells [1] = target: T1, human LILRB1 on cells (human, UniProt Q8NHL6 24-650); assay: flow cytometry, 721.221 cells, AF647-labelled antibody
T1 construct: whole, on cells; also called hLILRB1; LILRB1-expressing 721.221 cells
Procedure: (§1) While LILRB2 expression is mostly restricted to myeloid cells, LILRB1 has a broader expression on immune cell subsets, including B cells, T cells and NK cells.
(§2) Frozen cells were removed from storage in vapor phase liquid nitrogen and thawed by gentle swirling in a water bath at 37° C., then resuspended in DMEM media with 10% FBS. Cells were placed in a 15 mL conical tube and centrifuged at 300×g for 5 min, then supernatant was removed. Cells were resuspended in DMEM+10% FBS at a cell density of 2×10⁵ cells/mL in a T75 flask for culturing, and incubated at 37° C., 5% CO₂ for 3 days before passaging. Cells were passaged when the cell density reached 1×10⁶ cell/mL. On the day of the assay, cells were centrifuged, then supernatant was removed. Cells were resuspended in Blocking Buffer B (FACS Buffer containing 10% FBS and 0.5 mg/mL human IgG1 (Athens Research, No. 16-16-090707-1M)+0.05% NaN₃, 5% (w/v)) in a 15 mL conical tube, then incubated at 4° C. for 30 min. […] Cells were incubated with antibodies at 4° C. for 1 h. Cells were washed twice in FACS Buffer (PBS containing 2 mM EDTA+1% FBS+0.05% NaN₃) and then stained with for 10 min with Zombie Violet™ fixable viability dye (BioLegend, No. 423114) at RT, washed with FACS Buffer and resuspend in 75 μL of FACS Buffer for acquisition on a BD FACSymphony™ or BD FACSCanto™ II flow cytometer (BD Biosciences), as described in Example 6.

human LILRB2 on cells [2] = target: T2, human LILRB2 on cells (human, UniProt Q8N423 22-597); assay: flow cytometry, LILRB2-HEK293T cells, AF647-labelled antibody
T2 construct: whole, on cells; also called hLILRB2; LILRB2-HEK293T
Procedure: as §1, §2

[3] = target: T3, recombinant human LILRB2-His (human, UniProt Q8N423 22-461, limits assumed); assay: MSD ELISA, coated antigen, purified IgG1
T3 construct: Bought protein; also called LILRB2 protein
Procedure: (§3) Recombinant human and cynomolgus LILRB1 proteins (R&D Systems, No. 8989-T2-050; ACROBiosystems, No. CDJ-C52H3) and recombinant human and cynomolgus LILRB2 proteins (ACROBiosystems, No. LI2-H5220; No. L12-C52H3) were diluted in PBS to 4 μg/mL and added to a multi-array 384-well high-binding plates (MSD, No. L21XA4) at 10 μL/well and incubated at 4° C. overnight. The plates were washed several times with Wash Buffer (0.05% Tween® 20 in PBS), using a microplate washer and then blocked with 70 μL/well of 5% BSA in PBS for 1 hour (h) at room temperature (RT) with shaking at 700 rpm. After blocking, 20 μL/well of anti-LILRB2/LILRB1 antibodies or isotype control were added to the plates, and the plates were sealed and incubated for 2 h at RT with shaking at 700 rpm. After primary antibody binding, plates were washed five times with 70 μL/well of Wash Buffer (0.05% Tween® 20 in PBS) using a microplate washer. Secondary detection antibody (SULFO-TAG™-labeled goat anti-human IgG antibody (MSD, No. R32AJ-1)) was diluted to 4 μg/mL in assay diluent (1% BSA in PBS) and 10 μL/well was added to plates and incubated at RT protected from light for 1 h, with shaking at 700 rpm. Following incubation, plates were washed five times with Wash Buffer, using a microplate washer. After removal of the final wash, 35 μL/well of MSD Gold Read Buffer B (MSD, No. R60AM-4) was added to all wells using a Multidrop combo washer/dispenser, and plates were read using MESO Sector 600MM instrument (MSD) within 5 minutes (min) after addition of Read Buffer. Signals as counts per minute (cpm) were recorded. EC₅₀ values were calculated using GraphPad Prism based on log concentration of the primary antibodies versus cpm values.

[4] = target: T4, recombinant cynomolgus LILRB1 (cynomolgus); assay: MSD ELISA, coated antigen, purified IgG1
T4 construct: Bought protein
Procedure: as §3

[5] = target: T5, recombinant human LILRB1-His (human, UniProt Q8NHL6 24-458); assay: MSD ELISA, coated antigen, purified IgG1
T5 construct: Bought protein; also called LILRB1 protein
Procedure: as §3

[6] = target: T6, human LILRA1 on HEK293-6E cells (human, UniProt O75019 17-489); assay: flow cytometry, HEK293-6E transfectants
T6 construct: whole, on cells; also called hLILRA1
Procedure: (§4) To determine that the parent chimera anti LILRB2/1 antibody specifically binds to LILRB2 and LILRB1 and not to other LILRB and LILRA family members, a cross-reactivity assay was performed. Cross-reactivity was assessed by antibody binding to transiently transfected HEK293-6E cells by flow cytometry. Binding was evaluated to HEK293-6E cells transiently transfected with human LILRB-1, -2, -3, -4, and 5 plasmids (Origene, Nos. RC219949, RC217935, RC211228, RC220932, RC206516) or to cells transiently transfected with human LILRA-1, -2, -4, -5, and -6 plasmids (Origene, Nos. RC210808, RC205626, RC220452, RC212310 RC212965). […] At a concentration of 1 μg/mL, no binding of B21A1 or the humanized variants to LILRB-3, -4, or -5 was observed (Table 7). Additionally, no binding to LILRA-1, -2, -4, -5, or -6 was observed, confirming the specificity of B21A1 and its humanized variants to LILRB1 and LILRB2 (Table 8).

human LILRB1 on cells [7] = target: T1, human LILRB1 on cells; assay: flow cytometry, HEK293-6E transfectants
Procedure: as §4

[8] = target: T7, human LILRA2 on HEK293-6E cells (human, UniProt Q8N149 24-483); assay: flow cytometry, HEK293-6E transfectants
T7 construct: whole, on cells; also called hLILRA2
Procedure: as §4

[9] = target: T8, human LILRA6 on HEK293-6E cells (human, UniProt Q6PI73 24-481); assay: flow cytometry, HEK293-6E transfectants
T8 construct: whole, on cells; also called hLILRA6
Procedure: as §4

[10] = target: T9, human LILRB3 on HEK293-6E cells (human, UniProt O75022 24-631); assay: flow cytometry, HEK293-6E transfectants
T9 construct: whole, on cells; also called hLILRB3
Procedure: as §4

[11] = target: T10, human LILRA5 on HEK293-6E cells (human, UniProt A6NI73 42-299); assay: flow cytometry, HEK293-6E transfectants
T10 construct: whole, on cells; also called hLILRA5
Procedure: as §4

[12] = target: T11, human LILRB5 on HEK293-6E cells (human, UniProt O75023 24-590); assay: flow cytometry, HEK293-6E transfectants
T11 construct: whole, on cells; also called hLILRB5
Procedure: as §4

[13] = target: T12, human LILRB4 on HEK293-6E cells (human, UniProt Q8NHJ6 22-448); assay: flow cytometry, HEK293-6E transfectants
T12 construct: whole, on cells; also called hLILRB4
Procedure: as §4

human LILRB2 on cells [14] = target: T2, human LILRB2 on cells; assay: flow cytometry, HEK293-6E transfectants
Procedure: as §4

[15] = target: T13, human LILRA4 on HEK293-6E cells (human, UniProt P59901 24-499); assay: flow cytometry, HEK293-6E transfectants
T13 construct: whole, on cells; also called hLILRA4
Procedure: as §4

T1 sequence (Q8NHL6 24-650): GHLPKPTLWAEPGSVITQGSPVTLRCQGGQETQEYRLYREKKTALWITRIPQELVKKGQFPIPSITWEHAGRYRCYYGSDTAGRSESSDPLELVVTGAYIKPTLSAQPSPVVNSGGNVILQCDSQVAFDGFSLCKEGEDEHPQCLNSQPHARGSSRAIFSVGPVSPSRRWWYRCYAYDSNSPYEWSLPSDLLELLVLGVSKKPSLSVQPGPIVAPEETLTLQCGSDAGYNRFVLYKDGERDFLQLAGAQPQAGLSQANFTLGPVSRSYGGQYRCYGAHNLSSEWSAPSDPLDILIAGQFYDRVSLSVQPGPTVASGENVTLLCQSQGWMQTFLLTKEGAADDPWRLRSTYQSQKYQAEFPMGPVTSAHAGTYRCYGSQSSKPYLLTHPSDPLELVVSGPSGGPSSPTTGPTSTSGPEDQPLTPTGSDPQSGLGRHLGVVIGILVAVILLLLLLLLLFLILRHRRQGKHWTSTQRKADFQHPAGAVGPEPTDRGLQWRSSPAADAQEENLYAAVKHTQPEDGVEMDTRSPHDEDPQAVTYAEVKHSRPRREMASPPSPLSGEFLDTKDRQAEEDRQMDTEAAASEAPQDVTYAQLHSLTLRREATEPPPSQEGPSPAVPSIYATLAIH
T10 sequence (A6NI73 42-299): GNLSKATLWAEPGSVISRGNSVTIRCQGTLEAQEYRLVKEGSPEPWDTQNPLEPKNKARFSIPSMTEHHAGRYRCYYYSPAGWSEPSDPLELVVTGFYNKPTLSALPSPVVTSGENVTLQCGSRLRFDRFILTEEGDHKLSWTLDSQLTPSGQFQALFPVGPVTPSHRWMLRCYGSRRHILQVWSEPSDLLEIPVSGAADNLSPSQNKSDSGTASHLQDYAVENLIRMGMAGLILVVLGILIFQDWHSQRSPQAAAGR
T13 sequence (P59901 24-499): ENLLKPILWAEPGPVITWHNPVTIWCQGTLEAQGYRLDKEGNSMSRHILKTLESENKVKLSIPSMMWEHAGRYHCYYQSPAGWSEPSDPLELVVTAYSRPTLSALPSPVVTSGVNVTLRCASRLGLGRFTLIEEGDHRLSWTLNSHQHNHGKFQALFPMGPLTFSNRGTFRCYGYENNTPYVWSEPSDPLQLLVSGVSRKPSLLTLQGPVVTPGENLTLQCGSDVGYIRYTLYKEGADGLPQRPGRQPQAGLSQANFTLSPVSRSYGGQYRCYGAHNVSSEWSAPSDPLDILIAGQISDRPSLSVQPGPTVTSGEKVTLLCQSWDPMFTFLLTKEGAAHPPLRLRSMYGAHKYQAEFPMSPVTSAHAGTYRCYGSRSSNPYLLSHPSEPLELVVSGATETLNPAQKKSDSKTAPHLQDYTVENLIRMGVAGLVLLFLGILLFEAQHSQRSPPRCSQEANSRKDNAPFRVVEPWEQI
T5 sequence (Q8NHL6 24-458 limits assumed): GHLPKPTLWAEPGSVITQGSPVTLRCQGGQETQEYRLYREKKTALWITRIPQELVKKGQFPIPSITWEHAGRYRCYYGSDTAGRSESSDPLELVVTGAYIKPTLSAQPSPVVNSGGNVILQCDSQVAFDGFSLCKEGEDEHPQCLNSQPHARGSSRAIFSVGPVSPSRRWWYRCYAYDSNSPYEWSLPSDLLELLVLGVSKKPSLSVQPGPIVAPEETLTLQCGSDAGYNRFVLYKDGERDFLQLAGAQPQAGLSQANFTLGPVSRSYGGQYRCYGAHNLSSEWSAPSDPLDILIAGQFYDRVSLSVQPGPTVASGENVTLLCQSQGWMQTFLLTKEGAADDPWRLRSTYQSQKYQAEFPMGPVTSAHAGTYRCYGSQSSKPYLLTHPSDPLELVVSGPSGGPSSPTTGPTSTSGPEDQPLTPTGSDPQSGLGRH
T11 sequence (O75023 24-590): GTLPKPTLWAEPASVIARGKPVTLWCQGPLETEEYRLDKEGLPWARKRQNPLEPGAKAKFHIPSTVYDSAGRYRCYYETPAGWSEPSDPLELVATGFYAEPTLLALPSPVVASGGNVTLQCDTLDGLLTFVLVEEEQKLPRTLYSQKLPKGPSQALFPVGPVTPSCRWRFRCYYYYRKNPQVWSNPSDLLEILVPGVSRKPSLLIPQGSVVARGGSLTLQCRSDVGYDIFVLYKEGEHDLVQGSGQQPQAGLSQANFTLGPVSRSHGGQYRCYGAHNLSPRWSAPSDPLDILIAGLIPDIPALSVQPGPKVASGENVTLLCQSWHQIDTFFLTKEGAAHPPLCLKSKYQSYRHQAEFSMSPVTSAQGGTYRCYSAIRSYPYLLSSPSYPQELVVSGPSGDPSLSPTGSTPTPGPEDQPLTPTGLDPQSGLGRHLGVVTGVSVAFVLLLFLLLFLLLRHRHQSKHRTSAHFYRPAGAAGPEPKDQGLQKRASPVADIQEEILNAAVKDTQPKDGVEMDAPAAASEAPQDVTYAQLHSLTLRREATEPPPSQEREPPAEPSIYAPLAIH
T7 sequence (Q8N149 24-483): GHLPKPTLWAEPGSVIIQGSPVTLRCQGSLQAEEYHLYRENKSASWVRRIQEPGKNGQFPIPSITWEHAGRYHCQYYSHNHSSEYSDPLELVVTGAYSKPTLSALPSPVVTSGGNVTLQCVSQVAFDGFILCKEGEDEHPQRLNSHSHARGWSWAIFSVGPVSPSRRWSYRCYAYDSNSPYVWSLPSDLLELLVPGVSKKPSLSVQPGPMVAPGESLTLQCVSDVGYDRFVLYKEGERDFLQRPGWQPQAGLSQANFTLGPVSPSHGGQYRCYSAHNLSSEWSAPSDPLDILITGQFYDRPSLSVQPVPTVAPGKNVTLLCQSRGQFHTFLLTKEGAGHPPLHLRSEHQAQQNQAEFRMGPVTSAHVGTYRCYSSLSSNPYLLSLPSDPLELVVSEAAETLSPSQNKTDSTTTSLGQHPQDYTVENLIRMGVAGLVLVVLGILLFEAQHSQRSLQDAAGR
T2 sequence (Q8N423 22-597): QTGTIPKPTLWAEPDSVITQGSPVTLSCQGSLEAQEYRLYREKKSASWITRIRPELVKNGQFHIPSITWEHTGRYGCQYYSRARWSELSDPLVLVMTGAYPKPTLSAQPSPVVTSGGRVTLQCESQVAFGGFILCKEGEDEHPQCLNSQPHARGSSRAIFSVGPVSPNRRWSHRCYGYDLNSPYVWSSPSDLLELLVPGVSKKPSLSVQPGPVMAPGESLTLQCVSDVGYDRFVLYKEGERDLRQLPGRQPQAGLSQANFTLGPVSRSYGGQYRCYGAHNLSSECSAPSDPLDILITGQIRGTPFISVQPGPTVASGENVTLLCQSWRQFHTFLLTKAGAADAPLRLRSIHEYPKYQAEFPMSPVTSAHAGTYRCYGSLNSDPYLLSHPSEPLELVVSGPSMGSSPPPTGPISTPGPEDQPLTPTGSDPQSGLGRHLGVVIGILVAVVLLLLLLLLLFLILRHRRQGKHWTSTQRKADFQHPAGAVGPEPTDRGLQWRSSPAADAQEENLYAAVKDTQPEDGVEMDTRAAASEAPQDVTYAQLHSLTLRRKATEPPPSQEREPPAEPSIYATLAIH
T6 sequence (O75019 17-489): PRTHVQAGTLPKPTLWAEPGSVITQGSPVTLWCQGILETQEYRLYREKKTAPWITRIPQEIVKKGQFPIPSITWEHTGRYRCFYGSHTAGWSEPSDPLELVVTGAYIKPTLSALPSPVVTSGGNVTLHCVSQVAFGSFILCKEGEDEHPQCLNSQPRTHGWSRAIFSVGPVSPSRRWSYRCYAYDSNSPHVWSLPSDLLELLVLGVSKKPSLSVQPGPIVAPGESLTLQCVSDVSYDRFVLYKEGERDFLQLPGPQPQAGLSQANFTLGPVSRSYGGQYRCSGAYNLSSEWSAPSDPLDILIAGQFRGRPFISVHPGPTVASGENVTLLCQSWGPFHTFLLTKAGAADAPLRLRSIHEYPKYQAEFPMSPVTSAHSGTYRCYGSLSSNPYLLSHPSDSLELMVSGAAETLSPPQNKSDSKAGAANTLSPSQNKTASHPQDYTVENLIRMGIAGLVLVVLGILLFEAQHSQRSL
T9 sequence (O75022 24-631): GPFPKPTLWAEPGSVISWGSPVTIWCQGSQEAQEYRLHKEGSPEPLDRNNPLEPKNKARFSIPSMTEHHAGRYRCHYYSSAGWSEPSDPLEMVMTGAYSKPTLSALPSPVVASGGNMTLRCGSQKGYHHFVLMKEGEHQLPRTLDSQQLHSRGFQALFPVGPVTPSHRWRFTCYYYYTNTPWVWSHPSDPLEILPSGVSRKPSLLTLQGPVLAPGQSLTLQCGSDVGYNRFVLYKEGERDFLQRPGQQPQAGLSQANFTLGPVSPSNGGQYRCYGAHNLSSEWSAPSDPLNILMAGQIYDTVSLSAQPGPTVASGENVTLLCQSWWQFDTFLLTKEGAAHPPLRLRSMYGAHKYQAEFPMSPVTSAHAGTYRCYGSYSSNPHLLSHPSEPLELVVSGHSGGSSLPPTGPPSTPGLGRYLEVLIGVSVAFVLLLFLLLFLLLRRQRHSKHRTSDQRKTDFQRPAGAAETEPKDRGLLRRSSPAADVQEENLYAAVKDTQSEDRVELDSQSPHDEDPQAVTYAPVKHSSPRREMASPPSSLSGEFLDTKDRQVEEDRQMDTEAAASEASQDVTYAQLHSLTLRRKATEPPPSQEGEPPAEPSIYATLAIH
T8 sequence (Q6PI73 24-481): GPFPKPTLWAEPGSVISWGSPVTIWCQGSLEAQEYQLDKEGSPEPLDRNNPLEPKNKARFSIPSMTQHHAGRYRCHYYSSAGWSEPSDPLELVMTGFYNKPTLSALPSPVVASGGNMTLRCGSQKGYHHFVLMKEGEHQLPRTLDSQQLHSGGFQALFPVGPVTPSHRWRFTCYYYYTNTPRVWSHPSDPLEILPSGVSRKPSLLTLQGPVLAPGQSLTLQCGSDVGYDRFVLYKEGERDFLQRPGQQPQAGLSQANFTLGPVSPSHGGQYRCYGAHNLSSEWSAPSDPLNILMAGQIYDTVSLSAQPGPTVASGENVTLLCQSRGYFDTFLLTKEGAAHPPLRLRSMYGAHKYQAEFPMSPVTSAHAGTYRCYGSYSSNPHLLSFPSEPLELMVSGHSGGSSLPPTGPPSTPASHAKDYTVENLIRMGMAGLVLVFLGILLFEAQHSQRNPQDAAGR

EC50 (human LILRB1 on cells [1]) [µg/mL] | EC50 (human LILRB2 on cells [2]) [µg/mL] | EC50 [3] [µg/mL] | EC50 [4] [µg/mL] | EC50 [5] [µg/mL] | MFI [6] [MFI] | binding result [6] | MFI (human LILRB1 on cells [7]) [MFI] | MFI [8] [MFI] | binding result [8] | MFI [9] [MFI] | binding result [9] | MFI [10] [MFI] | binding result [10] | MFI [11] [MFI] | binding result [11] | MFI [12] [MFI] | binding result [12] | MFI [13] [MFI] | binding result [13] | Binder | other results
0.0595 | 0.00142 | 0.0287 | 0.286 | 0.00864 | 246 | no binding (tested: 1 µg/mL) | 985 | 25.6 | no binding (tested: 1 µg/mL) | 141 | no binding (tested: 1 µg/mL) | 86.2 | no binding (tested: 1 µg/mL) | 74.5 | no binding (tested: 1 µg/mL) | 87 | no binding (tested: 1 µg/mL) | 28.6 | no binding (tested: 1 µg/mL) | B21H1-24 (antibody, human IgG1, kappa, humanized IgG1/kappa, VH2+VL4) heavy: not shown light: DVVMTQSPSTVSASVGDRVTLTCQASGNIYSFLAWYQQKPGQPPKLLIYTASNLETGVPDRFSGSGSGTDYTLTISSLQADDFATYYCLGGLYSSDVSYAFGQGTKVEIKRTVAAPSVFIFPPSDEQLKSGTASVVCLLNNFYPREAKVQWKVDNALQSGNSQESVTEQDSKDSTYSLSSTLTLSKADYEKHKVYACEVTHQGLSSPVTKSFNRGEC | MFI (human LILRB2 on cells [14]): 6050 MFI; MFI [15]: 125 MFI; binding result [15]: no binding (tested: 1 µg/mL)
0.0515 | 0.00135 | 0.0248 | 1.51 | 0.00734 | 220 | no binding (tested: 1 µg/mL) | 1120 | 25.2 | no binding (tested: 1 µg/mL) | 141 | no binding (tested: 1 µg/mL) | 79.2 | no binding (tested: 1 µg/mL) | 71.8 | no binding (tested: 1 µg/mL) | 85.5 | no binding (tested: 1 µg/mL) | 26.5 | no binding (tested: 1 µg/mL) | B21H1-43 (antibody, human IgG1, kappa, humanized IgG1/kappa, VH4+VL3) heavy: not shown light: DIVMTQSPSSVSASVGDRVTITCQASGNIYSFLAWYQQKPGKAPKLLIYTASNLETGVPSRFSGSGSGTDFTLTISSLQPEDFATYYCLGGLYSSDVSYAFGGGTKVVIKRTVAAPSVFIFPPSDEQLKSGTASVVCLLNNFYPREAKVQWKVDNALQSGNSQESVTEQDSKDSTYSLSSTLTLSKADYEKHKVYACEVTHQGLSSPVTKSFNRGEC | MFI (human LILRB2 on cells [14]): 6370 MFI; MFI [15]: 114 MFI; binding result [15]: no binding (tested: 1 µg/mL)
0.0616 | 0.00086 | 0.0461 | 0.284 | 0.0134 | 264 | no binding (tested: 1 µg/mL) | 997 | 26.2 | no binding (tested: 1 µg/mL) | 135 | no binding (tested: 1 µg/mL) | 81 | no binding (tested: 1 µg/mL) | 71 | no binding (tested: 1 µg/mL) | 83.6 | no binding (tested: 1 µg/mL) | 27.2 | no binding (tested: 1 µg/mL) | B21H1-45 (antibody, human IgG1, kappa, humanized IgG1/kappa, VH4+VL5) heavy: not shown light: DIQMTQTPSTVEASVGGTVTITCQASGNIYSFLAWYQQKPGQPPKLLIYTASNLETGVPSRFSGSGSGTEYTLTISGLQSDDAATYYCLGGLYSSDVSYAFGGGTEVVVKRTVAAPSVFIFPPSDEQLKSGTASVVCLLNNFYPREAKVQWKVDNALQSGNSQESVTEQDSKDSTYSLSSTLTLSKADYEKHKVYACEVTHQGLSSPVTKSFNRGEC | MFI (human LILRB2 on cells [14]): 6680 MFI; MFI [15]: 108 MFI; binding result [15]: no binding (tested: 1 µg/mL)
0.0782 | 0.0009 | 0.0318 | 0.377 | 0.0095 | 280 | no binding (tested: 1 µg/mL) | 990 | 27.4 | no binding (tested: 1 µg/mL) | 148 | no binding (tested: 1 µg/mL) | 93.9 | no binding (tested: 1 µg/mL) | 78.2 | no binding (tested: 1 µg/mL) | 90.6 | no binding (tested: 1 µg/mL) | 32.4 | no binding (tested: 1 µg/mL) | B21H1-25 (antibody, human IgG1, kappa, humanized IgG1/kappa, VH2+VL5) heavy: not shown light: DIQMTQTPSTVEASVGGTVTITCQASGNIYSFLAWYQQKPGQPPKLLIYTASNLETGVPSRFSGSGSGTEYTLTISGLQSDDAATYYCLGGLYSSDVSYAFGGGTEVVVKRTVAAPSVFIFPPSDEQLKSGTASVVCLLNNFYPREAKVQWKVDNALQSGNSQESVTEQDSKDSTYSLSSTLTLSKADYEKHKVYACEVTHQGLSSPVTKSFNRGEC | MFI (human LILRB2 on cells [14]): 5320 MFI; MFI [15]: 138 MFI; binding result [15]: no binding (tested: 1 µg/mL)
